In EP1073891B1, “METHOD OF PREDICTING RECEPTOR MODULATING ACTIVITY” (Duke University, priority 1998, dated 1999):

Target: T1, glucocorticoid receptor (GR-VP16) (Homo sapiens, UniProt P04150)
T1 construct: expressed in transfected cells
T1 sequence (P04150 1-777): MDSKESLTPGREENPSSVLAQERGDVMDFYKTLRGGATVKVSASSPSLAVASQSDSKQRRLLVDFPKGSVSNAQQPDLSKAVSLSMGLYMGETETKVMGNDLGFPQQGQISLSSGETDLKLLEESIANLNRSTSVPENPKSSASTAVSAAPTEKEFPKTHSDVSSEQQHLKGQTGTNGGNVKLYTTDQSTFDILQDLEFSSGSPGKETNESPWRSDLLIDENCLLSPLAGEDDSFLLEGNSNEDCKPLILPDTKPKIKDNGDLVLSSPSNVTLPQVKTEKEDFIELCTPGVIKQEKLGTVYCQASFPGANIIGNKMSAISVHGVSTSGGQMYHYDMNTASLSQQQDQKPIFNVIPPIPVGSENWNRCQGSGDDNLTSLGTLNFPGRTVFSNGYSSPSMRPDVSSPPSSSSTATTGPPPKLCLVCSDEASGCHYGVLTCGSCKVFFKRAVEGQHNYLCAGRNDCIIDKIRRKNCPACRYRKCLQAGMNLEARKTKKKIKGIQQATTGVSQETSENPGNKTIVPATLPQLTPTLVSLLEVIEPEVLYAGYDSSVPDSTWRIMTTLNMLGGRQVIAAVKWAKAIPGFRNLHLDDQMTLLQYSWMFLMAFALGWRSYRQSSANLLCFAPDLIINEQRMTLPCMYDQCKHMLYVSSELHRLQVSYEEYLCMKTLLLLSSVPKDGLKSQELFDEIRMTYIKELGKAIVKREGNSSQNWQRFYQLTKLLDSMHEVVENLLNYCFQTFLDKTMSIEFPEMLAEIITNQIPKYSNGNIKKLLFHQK
Assay: Mammalian two-hybrid, specificity of peptide-nuclear receptor interaction (Example 4.2)
Format: cell-based
Conditions: mammalian two-hybrid (Fig. 8)
From the text: Peptide sequences representing each class was fused to the DNA binding domain (DBD) of the yeast transcription factor Ga14. HepG2 cells were then transiently transfected with expression vectors for ERα-VP16 and the Gal4-peptide fusion proteins. In addition, a luciferase reporter construct under the control of 5 copies of a Ga14 upstream enhancer element was also transfected along with a pCMV-β galactosidase vector to normalize for transfection efficiency. Transfection of the Ga14 DBD alone is included as control. Cells were then induced with various ligands as indicated in the figure and assayed for luciferase activity and β galactosidase activity. Normalized response was obtained by dividing the luciferase activity by the β galactosidase activity.
The specificity of peptide-nuclear receptor interaction was analyzed (Fig. 8) using the mammalian two-hybrid system. Experimental design is the same as in figure 2 except that either progesterone receptor (PRB-VP16), estrogen receptor beta (ERβ-VP16), glucocorticoid receptor (GR-VP16) or thyroid receptor beta (TRβ-VP16) was tested.

Sequence	interaction with GR
SSLTSRDFGSWYASR [α II]	None of the receptors tested interact significantly
SSWDMHQFFWEGVSR [α/β III]	None of the receptors tested interact significantly
SSNHQSSRLIELLSR [α/β I]	interact with the αβ I peptide in the presence of the appropriate agonist
